# Reference: patent US20210332138A1 (published 2021)
# Where two headings read alike, the source gives them in different places.
# Key:
# [1] = target: T1, hPDL1 expressed on 293T cells (human, UniProt Q9NZQ7 19-290); assay: FACS
# [2] = target: T1, hPDL1 expressed on 293T cells; assay: FACS; remark: listed apart in the source
# hPDL1-Fc fusion protein [3] = target: T2, hPDL1-Fc fusion protein (human, UniProt Q9NZQ7 19-238); assay: RBA; PDL1 coated
# hPDL1-Fc fusion protein [4] = target: T2, hPDL1-Fc fusion protein; assay: ELISA
# hPDL1-Fc fusion protein [5] = target: T2, hPDL1-Fc fusion protein; assay: RBA; PD1 coated
# hPDL1-Fc fusion protein [6] = target: T2, hPDL1-Fc fusion protein; assay: BIAcore
# hPDL1-Fc fusion protein [7] = target: T2, hPDL1-Fc fusion protein; assay: ELISA; FIG. 11C
# hPDL1-Fc fusion protein [8] = target: T2, hPDL1-Fc fusion protein; assay: receptor blocking ELISA; hPD1-Fc coated
# hPDL1-Fc fusion protein [9] = target: T2, hPDL1-Fc fusion protein; assay: receptor blocking ELISA; hPDL1-Fc coated
# hPDL1-Fc fusion protein [10] = target: T2, hPDL1-Fc fusion protein; assay: ELISA; FIG. 11B
# T2 sequence (Q9NZQ7 19-238): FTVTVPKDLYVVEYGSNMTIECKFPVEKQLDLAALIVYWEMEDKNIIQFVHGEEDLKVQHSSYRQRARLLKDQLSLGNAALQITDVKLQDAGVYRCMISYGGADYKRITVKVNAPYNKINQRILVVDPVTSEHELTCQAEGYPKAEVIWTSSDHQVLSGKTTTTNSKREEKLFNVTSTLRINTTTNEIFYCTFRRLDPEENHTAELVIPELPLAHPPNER
# T1 sequence (Q9NZQ7 19-290): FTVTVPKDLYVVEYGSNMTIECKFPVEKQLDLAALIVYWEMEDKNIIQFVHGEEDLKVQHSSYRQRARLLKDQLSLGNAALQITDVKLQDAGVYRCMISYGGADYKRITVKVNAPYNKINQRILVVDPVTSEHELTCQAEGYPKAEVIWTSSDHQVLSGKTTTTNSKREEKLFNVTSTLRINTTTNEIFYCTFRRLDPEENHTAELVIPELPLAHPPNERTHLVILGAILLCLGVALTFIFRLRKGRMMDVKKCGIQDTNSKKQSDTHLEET
Binder,EC50 [1] [nM],EC50 [2] [nM],IC50 (hPDL1-Fc fusion protein [3]) [nM],EC50 (hPDL1-Fc fusion protein [4]) [nM],IC50 (hPDL1-Fc fusion protein [5]) [nM],Kd (hPDL1-Fc fusion protein [6]) [nM],EC50 (hPDL1-Fc fusion protein [7]) [nM],IC50 (hPDL1-Fc fusion protein [8]) [nM],IC50 (hPDL1-Fc fusion protein [9]) [nM],EC50 (hPDL1-Fc fusion protein [10]) [nM]
"full-length antibody 3-1B11 (antibody, V domains shown) VH: EVQLVESGGGLVQPGGSLRLSCAASGFTFSDYDMIWVRQAPGKGLEWVAVISYDGSNKYYADSVKGRFTISRDNSKNTLYLQMNSLRAEDTAVYYCAKEFFGAFDIWGQGTMVTVSS VL: SSELTQDPAVSVALGQTVTITCQGDSLNYYYANWFQLKPGQAPVLVLFGKNNRPSGIPDRFSGSYSGSTASLTITGAQAEDDADYYCNSRDSGGNPWVFGGGTKLTVL",0.132,0.132,0.795,0.018,1.39,2.32,0.018,,,
"full-length antibody 3-1E4 (antibody, V domains shown) VH: QIQLVQSGAEVKKPGSSVKVSCKASGGTFSSYAISWVRQAPGQGLEWMGGIIPIFGTANYAQKFQGRVTITADKSTSTAYMELSSLRSEDTAVYYCAGGGAVADNSYWGQGTLVTVSS VL: DIRMTQSPSSLSASVGDRVTITCRASQGIRNDLGWYQQKPGKAPKLLIYAASSLQSGVPSRFSGSGSGTDFTLTISSLQPEDFATYYCLQDYNYPRTFGQGTKVEIK",,3.15,16.6,0.9,92.7,,,16.6,92.7,0.9
"full-length antibody 4-1E8 (antibody, V domains shown) VH: QIQLVQSGAEVKMPGASVTISCEASGYNFISYYIHWVRQAPGQGLEWMGFVVPSGGAAGYTQKFQGRLTVTRDTSTSTVYMDLNSLTSDDTAVYYCVREMSGGWFDFWGQGTLVTVSS VL: DIVMTQSPSSLSASVGDRVTITCRASQGIRNDLGWYQQKPGKAPKLLIYAASTLQSGVPSRFSGSGSGTDFTLTISSLQAEDVAVYYCQQYYSTPLTFGPGTKVDIK",,0.356,1.53,0.0391,1.26,4.46,0.0247,1.53,1.26,0.0391
